In patent publication US20110200525A1 (published 2011):
Values joined by “and” are separate entries in the source; they are usually repeats but may differ in a detail not shown here. Identical values can stand only once. Blank lines part the entries; values can stand above or below the binder they belong to.

Assays:
[1] = molecular target: T1, human EGFR wild type (human, UniProt P00533 25-1210); experiment: saturation binding of 125I-labelled VHH122 on an EGFR-expressing cell, specific binding in CPM
T1 construct: whole, on cells; also called EGFR on NR6W cells; EGFR in NR6W lysate

[2] = molecular target: T2, EGFRvIII ECD (UniProt P00533 25-645); experiment: SPR, Biacore 3000, ECD on CM5 chip; summary value
T2 construct: extracellular domain; Deletion mutant; also called vIII mutant EGFR ECD
Experimental: (§1) The ka, kd, and KD values were determined for the binding of two VHH domains to the ECDs of EGFR and EGFRvIII by surface plasmon resonance (SPR). The ECDs were coupled to BIACORE® CM5 chips and VHH domains were sequentially flowed over each protein in the BIACORE® 3000 (GE Healthcare).

[3] = molecular target: T3, EGFR ECD (wild type) (UniProt P00533 25-645, limits assumed); experiment: SPR, Biacore 3000, ECD on CM5 chip; summary value
T3 construct: extracellular domain; the cell lines carry human EGFR; also called wild type EGFR ECD; EGFR extracellular domain
Experimental: as §1

[4] = molecular target: T3, EGFR ECD (wild type); experiment: SPR, Biacore 3000, EGFR ECD on CM5 chip, VHH at 0.6 µM
Experimental: as §1

[5] = molecular target: T3, EGFR ECD (wild type); experiment: SPR, Biacore 3000, EGFR ECD on CM5 chip, VHH at 1.0 µM
Experimental: as §1

[6] = molecular target: T2, EGFRvIII ECD; experiment: SPR, Biacore 3000, EGFRvIII ECD on CM5 chip, VHH at 1.0 µM
Experimental: as §1

[7] = molecular target: T2, EGFRvIII ECD; experiment: SPR, Biacore 3000, EGFRvIII ECD on CM5 chip, VHH at 0.6 µM
Experimental: as §1

[8] = molecular target: T1, human EGFR wild type; experiment: pull-down from NR6W lysate by His-tagged VHH on a nickel-chelate plate, Western blot with anti-EGFR mAb H11
Experimental: The VHH domains were allowed to bind to the plate wells for 16 hr at 4° C., and then the wells were washed 3 times with Tris-buffered saline containing 0.1% (v/v) TWEEN®-20 (TBST). NR6W lysate (450 μg) made with M-PER reagent (Pierce) plus EDTA-free protease inhibitors (Roche Applied Science) was added to each well and allowed to incubate for 16 hr at 4° C. The lysate was removed, and the wells were washed 15 times with TBST. Protein remaining on the well surface was eluted in SDS-PAGE sample buffer containing 1% (v/v) β-mercaptoethanol and 100 mM imidazole, preheated to 95° C. […] The blot was developed with SuperSignal West™ substrate (Pierce) and exposed to film.
NR6W lysate was added to each well and allowed to incubate for 16 hr at 4° C. The lysate was removed, the wells were washed and remaining protein eluted. Samples were subjected to SDS-PAGE and proteins were transferred to a PVDF membrane that was then probed for EGFR.

[9] = molecular target: T2, EGFRvIII ECD; experiment: SPR, Biacore 3000, ECD coupled to CM5 chip
Experimental: as §1

[10] = molecular target: T3, EGFR ECD (wild type); experiment: SPR, Biacore 3000, ECD coupled to CM5 chip
Experimental: as §1

[11] = molecular target: T1, human EGFR wild type; experiment: phage format; assay not given
[12] = molecular target: T4, human EGFRvIII (human, UniProt P00533 25-1210); experiment: phage format; assay not given
T4 construct: whole, on cells; Deletion mutant; also called EGFRvIII on NR6M cells; VIII mutant EGFR

B1: [125I]VHH122 (VHH)
VHH: EVQLQESGGGLVQAGDSLRLSCLVSGRSFNSYTMGWFRQAPGKEREFVAAILWSGPTTYYADSVKGRFTISRDNAKNTVYLQMNSLKPEDTAVYYCAAALGVLVLAPGNVYSYWGQGTQVTVSS
modifications: 125I label; labelled residues not stated
notes: not shown: C-terminal 6-His and myc tags from pHEN1-H6
Kd [1]: 46 nM

B2: VHH122 (VHH)
VHH: B1 VHH
notes: polyhistidine and myc tagged; also called VH122; not shown: C-terminal 6-His and myc tags from pHEN1-H6
Kd [2]: ~40 nM
Kd [3]: ~40 nM
Ka [4]: 2.58e+07 M⁻¹
Kd [4]: 38.7 nM
koff [4]: 0.00318 s⁻¹
kon [4]: 82300 M⁻¹ s⁻¹
Ka [5]: 4.95e+07 M⁻¹ and 1.73e+07 M⁻¹
Kd [5]: 20.2 nM and 57.8 nM
koff [5]: 0.00207 s⁻¹ and 0.00333 s⁻¹
kon [5]: 57600 M⁻¹ s⁻¹ and 102000 M⁻¹ s⁻¹
Ka [6]: 1.82e+07 M⁻¹
Kd [6]: 55 nM
koff [6]: 0.00308 s⁻¹
kon [6]: 56100 M⁻¹ s⁻¹
Ka [7]: 3.01e+07 M⁻¹
Kd [7]: 33.2 nM
koff [7]: 0.00304 s⁻¹
kon [7]: 91300 M⁻¹ s⁻¹

B4: VHH205 (VHH)
VHH: QVKLQESGGGLVQSGGSLRLSCIASGSTVSGNTMGWYRQAPGKQRELVAVISSVGVSNVAQSVKGRFAISRDNAKNTVYLQMSSLKPEDTAVYYCNALGTGRANWGQGTQVTVSS
notes: Free VHH used in SPR; not shown: C-terminal 6-His and myc tags from pHEN1-H6
Ka [5]: 1.34e+07 M⁻¹
Kd [5]: 74.7 nM
koff [5]: 0.0115 s⁻¹
kon [5]: 154000 M⁻¹ s⁻¹

Other lines, results leading:

binding result [8]: no binding (tested: 20 ug VHH per well)
binding result [9]: no binding
binding result [10]: no binding
B3: RP2 (VHH)
VHH: EVQLQESGGGLVQAGGSLRLSCAASGSTFSNEPFGWYRGAPGKLRELVGTISAGGNTNYVDAVKGRFMISRDNGRRMVYLQMNNLRPDDTAVYYCWNRGYWGQGTQVTVSS
notes: Random library clone used as negative control, as free VHH; also called random VHH domain RP2; control VHH RP2; not shown: C-terminal 6-His and myc tags from pHEN1-H6

binding result [11]: binds
binding result [12]: no binding
B5: VHH03 (VHH)
VHH: EVKLQQSGGGLVQPGGSLTLSCVTSGFTFSTYGMDWVRQAPGKGFEWVASISFGGGITNYGDFVKGRFTISRDNAKNTLYLHMNGLKPDDTAVYYCQMGSKRGQGTQVTVSS
